How the values were obtained:
ERK = ERK activation in HSCs (Western blot); assay type: cell-based, human; conditions: HSCs, antibody 2 μg/ml
Method: Western blots were carried out on total protein extracts from HSCs and liver tissues. Both cells and frozen tissues were homogenized in radioimmunoprecipitation assay (RIPA) buffer containing protease and phosphatase inhibitors (Thermo Scientifics), followed by centrifugation to clear the lysate. Protein concentrations were determined by Bradford assay (Bio-Rad). Equal amount of protein lysates were separated by SDS-PAGE, transferred to PVDF membrane, and subjected to immunoblot analysis for the indicated primary antibodies. Proteins were visualized using the ECL detection system (Pierce) with the appropriate secondary antibodies.

WDF-fed mice = assay: WDF NASH reversal model (Example 4); assay type: in vivo, mouse; conditions: WDF 16 weeks, then 10 mg/kg for 8 weeks on continued WDF
Method: FIGS. 21A to 21L. Inhibition of Il-11 signalling reverses NASH pathologies in preclinical models and HSC-to-myofibroblast transformation. (A) Schematic showing therapeutic dosing regime in NASH reversal experiment for data shown in (B-G). Mice were fed with WDF for 16 weeks to induce NASH and then treated with (10 mg/kg) X209 or IgG for 8 weeks while they were on continuous WDF feeding. (B) Total liver hydroxyproline content, the levels of (C) liver triglycerides, (D) serum ALT, (E), fasting blood glucose, (F) serum triglycerides, and (G) serum cholesterol in mice on NC and IgG- and X209-treated WDF (n≥5/group). (H) Schematic showing reversal experiment in which fibrosis was established by feeding mice HFMCD for 10 weeks and then replacing this with NC and initiating antibody (X203 and X209) therapy. Mice were euthanized at the indicated time points. (I) Total liver hydroxyproline content (dotted line represents the mean value of NC=0.93) and (J) relative mRNA expression of Mmp2/Timp1 at 1-, 3-, 6-weeks after concurrent metabolic intervention (diet switch) and X203, X209, or IgG treatment (n≥3/group). Quantification of ACTA2^+ve immunostaining (scale bars, 200 μm) following incubation (K) with TGFβ1 or (L) with PDGF, either prior to or after the addition of X203, X209, or IgG (n=5/group). (K-L) TGFβ1 (5 ng/ml), PDGF (20 ng/ml), IgG, X203 and, X209 (2 μg/ml). (B-G, K-L) Data are shown as box-and-whisker with median (middle line), 25th-75th percentiles (box) and min-max percentiles (whiskers); (I) data are shown as mean±s.d; (J) data are represented as line chart (mean) and transparencies indicate s.d. (B) Two-tailed Student's t-test (C-G,K-L) two-tailed, Tukey-corrected Student's t-test; (I-J) two-way ANOVA. FC: fold change; NC: normal chow; WDF: Western diet+15% (w/v) fructose; HFMCD: high fat methionine- and choline-deficient.
Ten week old male C57Bl/6J mice were fed Western diet (D12079B, Research Diets), supplemented with 15% weight/volume fructose in drinking water to mimic NAFLD/NASH like humans 17,18, whereas control mice received normal chow and tap water. Durations of diet and antibody therapies are described.
(§1) Mice were injected intraperitoneally with either antagonist anti-IL-11 antibody, antagonist anti-IL11RA antibody or an identical amount of IgG isotype control for the treatment durations outlined in the figures.
Mice were fasted for 6 h prior to blood collection (via tail snip) and Accu-Chek blood glucose meter was used to take fasting glucose measurements.

mice with PDL = assay: Pancreatic duct ligation (PDL) model of pancreatic injury; assay type: in vivo, mouse; conditions: 14 days
From the text: FIGS. 50A to 50C. Schematic, box plot and images relating to the effect of antagonism of IL-11 mediated signalling in a pancreatic duct ligation (PDL) model of pancreatic injury. (A) Schematic representation of experiment in which pancreatic injury is induced by PDL, and wherein mice are subsequently treated with neutralising anti-IL-11 RA antibody or IgG isotype control antibody. (B) Ligated lobe weight for mice treated with neutralising anti-IL-11 RA antibody or IgG isotype control antibody at 14 days. (C) Representative images of Masson's Trichrome staining of pancreatic tissue from mice treated with neutralising anti-IL-11 RA antibody or IgG isotype control antibody at 14 days.

MCD-fed db/db mice = assay: MCD-fed db/db mouse NASH model; assay type: in vivo
Method: FIGS. 20A to 20N. Therapeutic targeting of Il-11 inhibits and reverses NASH pathologies in preclinical models. (A) Schematic showing therapeutic use of X203 and X209 (10 mg/kg, biweekly) in HFMCD-fed mice for experiments shown in (B-E). X203, X209 or IgG isotype control were administered from week 6 to 10 of HFMCD diet. (B) Representative liver histological images (Masson's Trichrome staining; scale bars, 100 μm), (C) relative liver hydroxyproline content, (D) relative liver pro-inflammatory mRNA expression levels (n≥6/group) and (E) serum ALT levels. (F) Western blots of hepatic Erk activation status. (G) Schematic of X203 or IgG administration to MCD-fed db/db mice for experiments shown in H-N. Western blots of hepatic (H) Il-11 and Gapdh, (I) p-Erk and Erk. (J) Representative Masson's Trichrome images of liver from X203 or IgG-treated MCD-fed db/db mice (scale bars, 100 μm). The levels of (K) hepatic triglyceride, (L) relative liver hydroxyproline, (M) serum ALT, and (N) mRNA expression of liver pro-inflammatory markers (n≥5/group). (C-E,K-N) Data are shown as box-and-whisker with median (middle line), 25th-75th percentiles (box) and min-max percentiles (whiskers); two-tailed, Tukey-corrected Student's t-test. FC: fold change; NC: normal chow; HFMCD: high fat methionine- and choline-deficient; MCD: methionine- and choline-deficient.
Male BKS.Cg-Dock7m+/+LeprdbJ (db/db) mice on C57BL/6J genetic background were 12 weeks of age and at the hepatic steatosis stage when they were fed methionine- and choline-deficient diet (MCD, A02082002BRi, Research Diets) for 8 weeks; control mice were of the same genotype. Durations of diet and antibody therapies are described.
as §1

Row | Molecule | ERK phosphorylation downstream of all factors, including IL-11 (ERK) | hepatic Erk activation (WDF-fed mice) | liver fibrosis (WDF-fed mice) | liver inflammation (WDF-fed mice) | liver steatosis (WDF-fed mice) | serum ALT levels (WDF-fed mice) | serum cholesterol levels (WDF-fed mice) | serum glucose (WDF-fed mice) | serum triglycerides (WDF-fed mice) | pancreatic fibrosis (mice with PDL) | reduction in pancreatic tissue associated with PDL (mice with PDL) | ALT levels (MCD-fed db/db mice) | hepatic Erk activation (MCD-fed db/db mice) | hepatic fibrosis (MCD-fed db/db mice) | hepatic inflammation (MCD-fed db/db mice) | hepatic steatosis (MCD-fed db/db mice)
1 | X209: mouse anti-mouse IL-11Rα IgG (IgG1κ), neutralising; VH SEQ ID NO:24, VL SEQ ID NO:25 (antibody, V domains shown, Enx209 VH; Enx209 VL) VH: QVQLQQPGAELVRPGSSVKLSCKASGYTFTNYWMHWLKQRPVQGLEWIGNIGPSDSKTHYNQKFKDKATLTVDKSSSTAYMQLNSLTSEDSAVYYCARGDYVLFTYWGQGTLVTVSA VL: DIVLTQSPATLSLSPGERATLSCRASQSISNNLHWYQQKSHEAPRLLIKYASQSISGIPARFSGSGSGTDFTLSFSSLETEDFAVYFCQQSYSWPLTFGQGTKLEIK | abolished | inhibited | reversal | reversal | reversal | reduction | reduction | reduction | reduction | reduced pancreatic fibrosis | inhibited |  |  |  |  | 
2 | X203: mouse anti-mouse IL-11 IgG (IgG1κ), neutralising; VH SEQ ID NO:22, VL SEQ ID NO:23 (antibody, V domains shown, Enx203 VH; Enx203 VL) VH: EVQLQQSGPELVKPGASVKIPCKASGYTFTDYNMDWVKQSHGKSLEWIGDINPHNGGPIYNQKFTGKATLTVDKSSSTAYMELRSLTSEDTAVYYCARGELGHWYFDVWGTGTTVTVSS VL: DIVLTQSPASLAVSLGQRATISCRASKSVSTSGYSYIHWYQQKPGQPPKLLIYLASNLDSGVPARFSGSGSGTDFTLNIHPVEEEDAATYYCQHSRDLPPTFGGGTKLEIK |  |  |  |  |  |  |  |  |  |  |  | lowering | inhibited | reduced | reduced | reduced
